Reference: publication PMC11272584 (Nature Metabolism, 2024)
Positions count from the first letter of the chain named. Names may count otherwise.

T1: GIPR R164W (Homo sapiens, UniProt P48546, R164W)
T1 construct: host or cells: HEK293
T1 sequence (P48546 22-466 R164W): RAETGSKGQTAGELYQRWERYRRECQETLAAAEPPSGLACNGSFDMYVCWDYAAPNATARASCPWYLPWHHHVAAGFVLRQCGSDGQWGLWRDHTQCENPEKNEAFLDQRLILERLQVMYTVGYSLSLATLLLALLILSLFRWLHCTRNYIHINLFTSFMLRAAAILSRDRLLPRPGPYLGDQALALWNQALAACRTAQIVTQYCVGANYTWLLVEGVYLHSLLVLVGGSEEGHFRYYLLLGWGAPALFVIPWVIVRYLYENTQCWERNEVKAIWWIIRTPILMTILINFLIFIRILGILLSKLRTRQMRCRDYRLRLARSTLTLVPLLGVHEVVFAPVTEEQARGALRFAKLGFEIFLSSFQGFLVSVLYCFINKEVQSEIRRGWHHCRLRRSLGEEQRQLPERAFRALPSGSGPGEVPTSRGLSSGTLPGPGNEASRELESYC

T2: GIPR R164Q (Homo sapiens, UniProt P48546, R164Q)
T2 construct: host or cells: HEK293
T2 sequence (P48546 22-466 R164Q): T1 sequence (P48546 22-466 R164W) with W143Q

T3: GIPR T168A (Homo sapiens, UniProt P48546, T168A)
T3 construct: host or cells: HEK293
T3 sequence (P48546 22-466 T168A): T1 sequence (P48546 22-466 R164W) with W143R, T147A

T4: GIPR H166Y (Homo sapiens, UniProt P48546, H166Y)
T4 construct: host or cells: HEK293
T4 sequence (P48546 22-466 H166Y): T1 sequence (P48546 22-466 R164W) with W143R, H145Y

T5: GIPR R183Q (Homo sapiens, UniProt P48546, R183Q)
T5 construct: host or cells: HEK293
T5 sequence (P48546 22-466 R183Q): T1 sequence (P48546 22-466 R164W) with W143R, R162Q

T6: GIPR A150T (Homo sapiens, UniProt P48546, A150T)
T6 construct: host or cells: HEK293
T6 sequence (P48546 22-466 A150T): T1 sequence (P48546 22-466 R164W) with A129T, W143R

T7: GIPR A185V (Homo sapiens, UniProt P48546, A185V)
T7 construct: host or cells: HEK293
T7 sequence (P48546 22-466 A185V): T1 sequence (P48546 22-466 R164W) with W143R, A164V

B1: R164W (protein)
chain: T1 sequence (P48546 22-466 R164W)
B2: R164Q (protein)
chain: T1 sequence (P48546 22-466 R164W) with W143Q
B3: T168A (protein)
chain: T1 sequence (P48546 22-466 R164W) with W143R, T147A
B4: A150T (protein)
chain: T1 sequence (P48546 22-466 R164W) with A129T, W143R
B5: A185V (protein)
chain: T1 sequence (P48546 22-466 R164W) with W143R, A164V
B6: H166Y (protein)
chain: T1 sequence (P48546 22-466 R164W) with W143R, H145Y
B7: R183Q (protein)
chain: T1 sequence (P48546 22-466 R164W) with W143R, R162Q

target: T1, GIPR R164W; assay: cAMP accumulation; format: cell-based; conditions: not given

**Q.** B1 was tested. Which “Efficacy at 100pmol (cAMP)” value did it give?
**A.** The value was 0.003189.

target: T2, GIPR R164Q; assay: cAMP accumulation; format: cell-based; conditions: not given

**Q.** With B2 as the molecule, how does the “Efficacy at 100pmol (cAMP)” value read?
**A.** The value was 1.15.

target: T3, GIPR T168A; assay: cAMP accumulation; format: cell-based; conditions: not given

**Q.** How did the “Efficacy at 100pmol (cAMP)” value turn out when B3 was run?
**A.** The value was 0.2182.

system: GIPR variants (groups); assay: β-arrestin 2 recruitment (BRET); conditions: arr part of the in vitro group;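 further: BRET readout of β-arrestin 2 recruitment in transiently transfected HEK293 cells expressing WT GIPR or a GIPR variant plus GPCR kinase 2, Rluc8 donor and citrine acceptor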
Protocol: Both cell lines were cultured at 5% CO2 at 37 °C in Roswell Park Memorial Institute GlutaMAX-I supplemented with 10% fetal bovine serum, 180 units ml^−1 penicillin, and 45 g ml^−1 streptomycin. […] The polyethyleneimine (PEI) transfection method was used for the β-arrestin 2 recruitment assays[50], endosomal signalling and basal receptor localization assays, while the lipofectamine transfection method was used for the internalization assay.
Measurement of β-arrestin 2 recruitment was performed with a BRET assay. Two days before the assay, the HEK293 cells were transiently transfected with either WT GIPR or the GIPR variants together with the donor Rluc8-Arrestin-3-Sp1, the acceptor mem-linker-citrine-SH3 and the GPCR kinase 2 to facilitate β-arrestin 2 recruitment. On assay day, the cells were washed with PBS and resuspended in PBS supplemented with 5 mmol l^−1 glucose. Subsequently, 85 µl of the cell suspension was transferred to a white 96-well plate and 10 µl of 50 µM coelenterazine-h was added.

**Q.** For B4, which “In vitro groups (β-arrestin)” value is on record?
**A.** Its value is “WT-like_arr”.

**Q.** For B2, which “In vitro groups (β-arrestin)” value is on record?
**A.** The value was “LoF_arr”.

**Q.** B5 was tested. Which “In vitro groups (β-arrestin)” value did it give?
**A.** The value was “WT-like_arr”.

**Q.** Which “In vitro groups (β-arrestin)” value does the source give for B6 here?
**A.** The value was “LoF_arr”.

**Q.** B7 was tested. Which “In vitro groups (β-arrestin)” value did it give?
**A.** The value was “LoF_arr”.

**Q.** B1 was tested. Which “In vitro groups (β-arrestin)” value did it give?
**A.** Its value is “LoF_arr”.

**Q.** With B3 as the molecule, how does the “In vitro groups (β-arrestin)” value read?
**A.** The value was “LoF_arr”.

same assay, conditions: in vitro β-arrestin recruitment per GIPR variant

**Q.** With B4 as the molecule, how does the “Beta, Barr” value read?
**A.** Its value is 0.8173.

**Q.** How did the “Beta, Barr” value turn out when B2 was run?
**A.** Its value is 0.3053.

**Q.** How did the “Beta, Barr” value turn out when B5 was run?
**A.** The value was 0.8905.

**Q.** How did the “Beta, Barr” value turn out when B6 was run?
**A.** Its value is 0.3616.

**Q.** B7 was tested. Which “Beta, Barr” value did it give?
**A.** The value was 0.03853.

**Q.** For B1, which “Beta, Barr” value is on record?
**A.** Its value is 0.

**Q.** B3 was tested. Which “Beta, Barr” value did it give?
**A.** The value was 0.2206.

system: GIPR variants (groups); assay: cAMP accumulation; format: cell-based, human; conditions: cAMP part of the in vitro group

**Q.** B4 was tested. Which “In vitro groups (cAMP)” value did it give?
**A.** Its value is “LoF_camp”.

**Q.** How did the “In vitro groups (cAMP)” value turn out when B2 was run?
**A.** The value was “WT-like_camp”.

**Q.** How did the “In vitro groups (cAMP)” value turn out when B5 was run?
**A.** The value was “LoF_camp”.

**Q.** Which “In vitro groups (cAMP)” value does the source give for B6 here?
**A.** The value was “WT-like_camp”.

**Q.** Which “In vitro groups (cAMP)” value does the source give for B7 here?
**A.** The value was “LoF_camp”.

**Q.** With B1 as the molecule, how does the “In vitro groups (cAMP)” value read?
**A.** The value was “LoF_camp”.

**Q.** With B3 as the molecule, how does the “In vitro groups (cAMP)” value read?
**A.** The value was “LoF_camp”.

same assay, conditions: cAMP production compared with WT

**Q.** How did the percentage_camp turn out when B4 was run?
**A.** Its percentage_camp is less than 50% cAMP.

**Q.** How did the percentage_camp turn out when B2 was run?
**A.** The percentage_camp was greater than 50% cAMP.

**Q.** With B5 as the molecule, how does the percentage_camp read?
**A.** Its percentage_camp is less than 50% cAMP.

**Q.** With B6 as the molecule, how does the percentage_camp read?
**A.** The percentage_camp was greater than 50% cAMP.

**Q.** How did the percentage_camp turn out when B7 was run?
**A.** Its percentage_camp is less than 50% cAMP.

**Q.** How did the percentage_camp turn out when B1 was run?
**A.** The percentage_camp was less than 50% cAMP.

**Q.** How did the percentage_camp turn out when B3 was run?
**A.** Its percentage_camp is less than 50% cAMP.

same assay, conditions: in vitro cAMP production per GIPR variant

**Q.** B4 was tested. Which “Beta, cAMP” value did it give?
**A.** Its value is 0.1631.

**Q.** With B2 as the molecule, how does the “Beta, cAMP” value read?
**A.** The value was 1.15.

**Q.** Which “Beta, cAMP” value does the source give for B5 here?
**A.** Its value is 0.2646.

**Q.** With B6 as the molecule, how does the “Beta, cAMP” value read?
**A.** The value was 0.9566.

**Q.** With B7 as the molecule, how does the “Beta, cAMP” value read?
**A.** Its value is 0.

**Q.** For B1, which “Beta, cAMP” value is on record?
**A.** Its value is 0.003189.

**Q.** For B3, which “Beta, cAMP” value is on record?
**A.** Its value is 0.2182.

target: T4, GIPR H166Y; assay: cAMP accumulation; format: cell-based; conditions: not given

**Q.** Which “Efficacy at 100pmol (cAMP)” value does the source give for B6 here?
**A.** Its value is 0.9566.

target: T5, GIPR R183Q; assay: cAMP accumulation; format: cell-based; conditions: not given

**Q.** With B7 as the molecule, how does the “Efficacy at 100pmol (cAMP)” value read?
**A.** Its value is 0.

target: T6, GIPR A150T; assay: cAMP accumulation; format: cell-based; conditions: not given

**Q.** B4 was tested. Which “Efficacy at 100pmol (cAMP)” value did it give?
**A.** The value was 0.1631.

target: T7, GIPR A185V; assay: cAMP accumulation; format: cell-based; conditions: not given

**Q.** With B5 as the molecule, how does the “Efficacy at 100pmol (cAMP)” value read?
**A.** Its value is 0.2646.
